Experimental data from US6395526B1, “DNA polymerase” (Takara Shuzo Co., Ltd., priority 1995, dated 2002).
“Also recorded” adds a separate entry of the source.

Experiments:
λ-DNA = conditions: reported, enzyme used alone; cited from earlier work
[1] = test system: 32P-labeled DNA fragment from pUC119 vector; experiment: Associated exonuclease activity; format: biochemical; conditions: 75° C.
Protocol: The exonuclease activity of the DNA polymerase of the present invention was assessed as follows: As a substrate for 5′→3′ exonuclease activity detection, a DNA fragment labeled with ^32P at the 5′-end was prepared by a process comprising digesting a pUC119 vector (manufactured by Takara Shuzo Co., Ltd.) with SspI (manufactured by Takara Shuzo Co., Ltd.), separating the resulting 386 bp DNA fragment by agarose gel electrophoresis, purifying the fragment, and labeling with [γ-^32P]-ATP and polynucleotide kinase. Also, as a substrate for 3′→5′ exonuclease activity detection, a DNA fragment labeled with ^32P at 3′-end was prepared by a process comprising digesting a pUC119 vector with Sau3AI, separating the resulting 341 bp DNA fragment by agarose gel electrophoresis, purifying the fragment, and carrying out a fill-in reaction using […] (manufactured by Amersham) and the Klenow fragment (manufactured by Takara Shuzo Co., Ltd.). […] The radioactivity existing in the supernatant was assayed using a liquid scintillation counter, and the amount of degradation by the exonuclease activity was calculated.
In the figure, the abscissa indicates the reaction time, and the ordinate indicates the ratio of radioactivity released into the supernatant relative to the radioactivity contained in the entire reaction mixture. […]

Substance | strand length of DNA amplifiable by PCR (λ-DNA) | 3′→5′ exonuclease activity ([1]; 3′-end labeled 341 bp fragment) | 5′→3′ exonuclease activity ([1]; 5′-end labeled 386 bp fragment)
Taq DNA Polymerase: Taq DNA polymerase derived from Thermus aquaticus (TaKaRa Taq, manufactured by Takara Shuzo Co., Ltd.) [reference compound] | difficult to amplify a DNA fragment of not less than 10 kbp |  | 
DNA Polymerase of the Present Invention: complex of first (ORF3, SEQ ID NO:2) and second (ORF4, SEQ ID NO:4) DNA polymerase-constituting proteins from Pyrococcus furiosus |  | potent; also recorded: of the same level as that of the Pfu DNA polymerase | no 5′→3′exonuclease activity was observed
